{"source": "paper PMC2173821", "about": "(The Journal of Cell Biology, 2002)", "proteins": {"B1": {"name": "His-tagged wild-type human BAF, recombinant (natural protein, UniProt O75531 1-89, looked up)", "chain": "MTTSQKHRDFVAEPMGEKPVGSLAGIGEVLGKKLEERGFDKAYVVLGQFLVLKKDEDLFREWLKDTCGANAKQSRDCFGCLREWCDAFL"}, "B2": {"name": "His-tagged human BAF mutant 14A, recombinant (natural protein, UniProt O75531 1-89, looked up)", "chain": "B1 chain with P14A"}, "B3": {"name": "His-tagged human BAF mutant 41E, recombinant (natural protein, UniProt O75531 1-89, looked up)", "chain": "B1 chain with K41E"}, "B4": {"name": "His-tagged human BAF mutant 47E, recombinant (natural protein, UniProt O75531 1-89, looked up)", "chain": "B1 chain with G47E"}, "B5": {"name": "His-tagged human BAF mutant 53E, recombinant (natural protein, UniProt O75531 1-89, looked up)", "chain": "B1 chain with K53E"}}, "target": "the molecule itself", "experiment": "SEC", "note": "Residue numbers refer to the chain shown, from its start.", "data": [{"protein": "B1", "values": [{"measurement": "stoichiometry N", "result": 2}]}, {"protein": "B2", "values": [{"measurement": "stoichiometry N", "result": 2}]}, {"protein": "B3", "values": [{"measurement": "stoichiometry N", "result": 2}]}, {"protein": "B4", "values": [{"measurement": "stoichiometry N", "result": 2}]}, {"protein": "B5", "values": [{"measurement": "stoichiometry N", "result": 2}]}]}
